Measured values as given in IntAct's records for PubMed 27153538.

B1: TP53-binding protein 1 (Homo sapiens), Q12888 (parent)
chain: MDPTGSQLDSDFSQQDTPCLIIEDSQPESQVLEDDSGSHFSMLSRHLPNLQTHKENPVLDVVSNPEQTAGEERGDGNSGFNEHLKENKVADPVDSSNLDTCGSISQVIEQLPQPNRTSSVLGMSVESAPAVEEEKGEELEQKEKEKEEDTSGNTTHSLGAEDTASSQLGFGVLELSQSQDVEENTVPYEVDKEQLQSVTTNSGYTRLSDVDANTAIKHEEQSNEDIPIAEQSSKDIPVTAQPSKDVHVVKEQNPPPARSEDMPFSPKASVAAMEAKEQLSAQELMESGLQIQKSPEPEVLSTQEDLFDQSNKTVSSDGCSTPSREEGGCSLASTPATTLHLLQLSGQRSLVQDSLSTNSSDLVAPSPDAFRSTPFIVPSSPTEQEGRQDKPMDTSVLSEEGGEPFQKKLQSGEPVELENPPLLPESTVSPQASTPISQSTPVFPPGSLPIPSQPQFSHDIFIPSPSLEEQSNDGKKDGDMHSSSLTVECSKTSEIEPKNSPEDLGLSLTGDSCKLMLSTSEYSQSPKMESLSSHRIDEDGENTQIEDTEPMSPVLNSKFVPAENDSILMNPAQDGEVQLSQNDDKTKGDDTDTRDDISILATGCKGREETVAEDVCIDLTCDSGSQAVPSPATRSEALSSVLDQEEAMEIKEHHPEEGSSGSEVEEIPETPCESQGEELKEENMESVPLHLSLTETQSQGLCLQKEMPKKECSEAMEVETSVISIDSPQKLAILDQELEHKEQEAWEEATSEDSSVVIVDVKEPSPRVDVSCEPLEGVEKCSDSQSWEDIAPEIEPCAENRLDTKEEKSVEYEGDLKSGTAETEPVEQDSSQPSLPLVRADDPLRLDQELQQPQTQEKTSNSLTEDSKMANAKQLSSDAEAQKLGKPSAHASQSFCESSSETPFHFTLPKEGDIIPPLTGATPPLIGHLKLEPKRHSTPIGISNYPESTIATSDVMSESMVETHDPILGSGKGDSGAAPDVDDKLCLRMKLVSPETEASEESLQFNLEKPATGERKNGSTAVAESVASPQKTMSVLSCICEARQENEARSEDPPTTPIRGNLLHFPSSQGEEEKEKLEGDHTIRQSQQPMKPISPVKDPVSPASQKMVIQGPSSPQGEAMVTDVLEDQKEGRSTNKENPSKALIERPSQNNIGIQTMECSLRVPETVSAATQTIKNVCEQGTSTVDQNFGKQDATVQTERGSGEKPVSAPGDDTESLHSQGEEEFDMPQPPHGHVLHRHMRTIREVRTLVTRVITDVYYVDGTEVERKVTEETEEPIVECQECETEVSPSQTGGSSGDLGDISSFSSKASSLHRTSSGTSLSAMHSSGSSGKGAGPLRGKTSGTEPADFALPSSRGGPGKLSPRKGVSQTGTPVCEEDGDAGLGIRQGGKAPVTPRGRGRRGRPPSRTTGTRETAVPGPLGIEDISPNLSPDDKSFSRVVPRVPDSTRRTDVGAGALRRSDSPEIPFQAAAGPSDGLDASSPGNSFVGLRVVAKWSSNGYFYSGKITRDVGAGKYKLLFDDGYECDVLGKDILLCDPIPLDTEVTALSEDEYFSAGVVKGHRKESGELYYSIEKEGQRKWYKRMAVILSLEQGNRLREQYGLGPYEAVTPLTKAADISLDNLVEGKRKRRSNVSSPATPTASSSSSTTPTRKITESPRASMGVLSGKRKLITSEEERSPAKRGRKSATVKPGAVGAGEFVSPCESGDNTGEPSALEEQRGPLPLNKTLFLGYAFLLTMATTSDKLASRSKLPDGPTGSSEEEEEFLEIPPFNKQYTESQLRAGAGYILEDFNEAQCNTAYQCLLIADQHCRTRKYFLCLASGIPCVSHVWVHDSCHANQLQNYRNYLLPAGYSLEEQRILDWQPRENPFQNLKVLLVSDQQQNFLELWSEILMTGGAASVKQHHSSAHNKDIALGVFDVVVTDPSCPASVLKCAEALQLPVVSQEWVIQCLIVGERIGFKQHPKYKHDYVSH

Variants of: B1
Conditions: with h4_human H4C16, P62805

Row | Variant | effect of a mutation on the interaction
1 | D1521R | disrupting interaction strength
